Source: US20230365658A1

Biological target: SARS-CoV-2 spike (S) glycoprotein, Omicron BA.4.6 (SARS-CoV-2), P0DTC2
Test: cell-based or functional assay

B1: mAb_v2130Vanderbilt_184_20220114_00112 (antibody, V domains shown)
VH: EVQLVESGGGLVKPGGSLRLSCAASGFTFRDVWMSWVRQAPGKGLEWVGRIKSKIDGGTTDYAAPVKGRFTISRDDSKNTLYLQMNSLKTEDTAVYYCTTAGSYYYDTVGPELPEGKFDYWGQGTLVTVSS
VL: not shown
pseudoviral neutralization IC50: 1.26 µg/mL
